Test results from EP4772535A1 (Chia Tai Tianqing Pharmaceutical Group Co., Ltd., dated 2026).

B1: hz135A2B10-1.1 (antibody, human IgG1, kappa, V domains shown)
VH: QVQLVESGGGLVQPGGSLRLSCAASGFAFSTYGMAWVRQAPGKGLEWVASIHKGGFSTYYPDNVKGRFTISRDNAKNSLYLQMNSLRAEDTAVYYCARHDWDGAMDYWGQGTLVTVSS
VL: DIQMTQSPSSLSASVGDRVTITCKASQDINSYLNWYQQKPGKAPKTLIYRANRLVDGVPSRFSGSGSGQDYTLTISSLQPEDFATYYCLQFDEFPYTFGQGTKVEIKR
notes: Humanized, human IgG1/kappa
B2: hz29H5D8-3.2 (antibody, human IgG1, kappa, V domains shown)
VH: QVQLVQSGAEVKKPGSSVKVSCKASGYTFTNYGISWVRQAPGQGLEWMGEIYPRSVNTYYSAKFKGRVTITADKSTSTAYMELSSLRSEDTAVYYCARHYYGSSLDYWGQGTLVTVSS
VL: DIQMTQSPSSLSASVGDRVTITCITSSDIEDDMNWYQQKPGKAPKLLISEGNSLRPGVPSRFSSSGYGTDFTFTISSLQPEDIATYYCLQSDNIFTFGQGTKVEIKR
notes: Humanized, human IgG1/kappa
B3: UC-961 (antibody, V domains shown)
VH: QVQLQESGPGLVKPSQTLSLTCTVSGYAFTAYNIHWVRQAPGQGLEWMGSFDPYDGGSSYNQKFKDRLTISKDTSKNQVVLTMTNMDPVDTATYYCARGWYYFDYWGHGTLVTVSS
VL: DIVMTQTPLSLPVTPGEPASISCRASKSISKYLAWYQQKPGQAPRLLIYSGSTLQSGIPPRFSGSGYGTDFTLTINNIESEDAAYYFCQQHDESPYTFGEGTKVEIK
B4: hz137G11D10-2.1 (antibody, human IgG1, kappa, V domains shown)
VH: QVQLQESGPGLVKPSQTLSLTCTVSGYSITSDYAWNWIRQHPGKGLEWIGYITYSASTSYNPSLKSRVTISRDTSKNQFSLKLSSVTAADTAVYYCARGAGTYYFDYWGQGTLVTVSS
VL: DIQMTQSPSSLSASVGDRVTITCITSTDIDEDMNWYQQKPGKAPKLLIYEDNSLRPGVPSRFSGSGYGTDFTLTISSLQPEDFATYYCLQTNNLPLTFGQGTKVEIKR
notes: Humanized, human IgG1/kappa

Assays:
[1] = target: T1, human ROR1 on stably transfected cells (NCI-H1993-ROR1, MDA-MB-468-ROR1, NCI-H1975-ROR1, 293T-ROR1-NF-kB) (human, UniProt Q01973 30-937); test: cell-based or functional assay
T1 sequence (Q01973 30-937 limits assumed): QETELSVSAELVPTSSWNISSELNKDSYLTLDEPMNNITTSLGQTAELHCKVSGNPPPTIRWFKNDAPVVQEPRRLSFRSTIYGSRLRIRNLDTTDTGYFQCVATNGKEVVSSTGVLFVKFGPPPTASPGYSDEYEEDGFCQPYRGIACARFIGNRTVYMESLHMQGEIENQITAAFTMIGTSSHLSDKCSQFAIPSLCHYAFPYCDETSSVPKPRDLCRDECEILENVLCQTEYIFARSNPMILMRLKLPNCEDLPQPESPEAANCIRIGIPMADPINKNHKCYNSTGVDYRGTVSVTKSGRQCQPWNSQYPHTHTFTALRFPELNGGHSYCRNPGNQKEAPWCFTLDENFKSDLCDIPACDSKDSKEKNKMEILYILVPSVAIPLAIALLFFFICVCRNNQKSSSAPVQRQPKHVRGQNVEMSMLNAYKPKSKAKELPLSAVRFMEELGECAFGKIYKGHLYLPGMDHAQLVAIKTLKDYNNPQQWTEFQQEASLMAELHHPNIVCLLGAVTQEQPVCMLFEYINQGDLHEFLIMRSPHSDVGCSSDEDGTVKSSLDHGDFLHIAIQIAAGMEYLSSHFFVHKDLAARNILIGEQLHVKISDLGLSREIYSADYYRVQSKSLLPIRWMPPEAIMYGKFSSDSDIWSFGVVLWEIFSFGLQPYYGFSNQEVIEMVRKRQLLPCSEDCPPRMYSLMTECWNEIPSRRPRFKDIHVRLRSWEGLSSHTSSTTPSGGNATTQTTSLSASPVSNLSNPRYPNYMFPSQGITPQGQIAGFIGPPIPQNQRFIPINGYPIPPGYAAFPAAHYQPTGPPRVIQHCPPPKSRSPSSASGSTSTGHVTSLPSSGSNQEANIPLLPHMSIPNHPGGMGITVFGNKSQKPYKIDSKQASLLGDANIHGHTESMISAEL

[2] = target: T1, human ROR1 on stably transfected cells …; test: cell-based or functional assay; remark: listed apart in the source
[3] = target: T2, ROR1 naturally expressed on human tumor cell lines (A549, Jeko-1, SW620, PA-1) (human, UniProt Q01973 30-937); test: cell-based or functional assay
T2 sequence (Q01973 30-937): as the sequence (Q01973 30-937 limits assumed) above

[4] = target: T2, ROR1 naturally expressed on human tumor …; test: FACS on PA-1 cells naturally expressing ROR1
[5] = target: T2, ROR1 naturally expressed on human tumor …; test: FACS on SW620 cells naturally expressing ROR1
[6] = target: T2, ROR1 naturally expressed on human tumor …; test: FACS on Jeko-1 cells naturally expressing ROR1
[7] = target: T3, human/cynomolgus monkey ROR1 protein (Acro Biosystems, Cat. No.: RO1-H522y) (human/cynomolgus monkey, UniProt Q01973 30-403); test: SPR (Biacore), antibody captured on anti-hIgG CM5 chip, ROR1 protein as analyte, method of Example 5
T3 construct: Bought SPR analyte
T3 sequence (Q01973 30-403 limits assumed): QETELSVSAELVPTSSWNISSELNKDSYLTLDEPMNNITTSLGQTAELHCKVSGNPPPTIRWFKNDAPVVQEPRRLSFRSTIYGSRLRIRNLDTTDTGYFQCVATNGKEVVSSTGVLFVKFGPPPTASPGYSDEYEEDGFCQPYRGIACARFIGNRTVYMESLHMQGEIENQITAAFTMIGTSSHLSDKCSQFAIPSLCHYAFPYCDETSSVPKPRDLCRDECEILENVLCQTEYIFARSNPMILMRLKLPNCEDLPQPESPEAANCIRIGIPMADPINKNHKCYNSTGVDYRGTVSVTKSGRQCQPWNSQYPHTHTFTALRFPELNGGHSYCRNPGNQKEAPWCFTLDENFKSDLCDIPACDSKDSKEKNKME

[8] = target: T2, ROR1 naturally expressed on human tumor …; test: FACS on PA-1 cells naturally expressing ROR1; remark: listed apart in the source
[9] = target: T2, ROR1 naturally expressed on human tumor …; test: FACS on SW620 cells naturally expressing ROR1; remark: listed apart in the source
[10] = target: T2, ROR1 naturally expressed on human tumor …; test: FACS on Jeko-1 cells naturally expressing ROR1; remark: listed apart in the source
[11] = target: T2, ROR1 naturally expressed on human tumor …; test: FACS on A549 cells naturally expressing ROR1
[12] = target: T2, ROR1 naturally expressed on human tumor …; test: FACS on PA-1 cells naturally expressing ROR1; remark: listed apart in the source
[13] = target: T2, ROR1 naturally expressed on human tumor …; test: FACS on SW620 cells naturally expressing ROR1; remark: listed apart in the source
[14] = target: T2, ROR1 naturally expressed on human tumor …; test: FACS on SW620 cells naturally expressing ROR1; remark: listed apart in the source
[15] = target: T2, ROR1 naturally expressed on human tumor …; test: FACS on Jeko-1 cells naturally expressing ROR1; remark: listed apart in the source
[16] = target: T2, ROR1 naturally expressed on human tumor …; test: FACS on Jeko-1 cells naturally expressing ROR1; remark: listed apart in the source
[17] = target: T3, human/cynomolgus monkey ROR1 protein …; test: SPR (Biacore), antibody captured on anti-hIgG CM5 chip, ROR1 protein as analyte, 1:1 model

Binder | Internalization EC50 (nM), MDA-MB-468-ROR1 cells, pH-dependent endocytosis reagent, FACS [1] | Internalization EC50 (nM), NCI-H1993-ROR1 cells, pH-dependent endocytosis reagent, FACS [1] | Internalization EC50 (nM), NCI-H1975-ROR1 cells, pH-dependent endocytosis reagent, FACS [2] | ADCC reporter gene assay EC50 (nM), PA-1 target cells, recombinant Jurkat effector cells [3] | EC50 [4] | Top (MFI) [4] | EC50 [5] | Top (MFI) [5] | EC50 [6] | Top (MFI) [6] | Kd [7] | koff [7] | kon [7] | EC50 [8] | Top (MFI) [8] | EC50 [9] | Top (MFI) [9] | EC50 [10] | Top (MFI) [10] | EC50 [12] | also measured
B1 | 1.39 nM | 1.16 nM | 14.9 nM | 0.13 nM | 0.166 nM | 250000 MFI | 0.022 nM | 30300 MFI | 0.015 nM | 88300 MFI | 0.527 nM | 0.00051 s⁻¹ | 968000 M⁻¹ s⁻¹ | – | – | – | – | – | – | – | –
B2 | 0.92 nM | 1.18 nM | 5.19 nM | 0.06 nM | – | – | – | – | – | – | 0.197 nM | 0.000354 s⁻¹ | 1.79e+06 M⁻¹ s⁻¹ | 0.087 nM | 244000 MFI | 0.01 nM | 30700 MFI | 0.012 nM | 89000 MFI | – | –
B3 | 2.15 nM | 2.06 nM | 17.7 nM | 0.27 nM | 0.127 nM | 232000 MFI | 0.025 nM | 26500 MFI | 0.019 nM | 83200 MFI | 1.17 nM | 0.0018 s⁻¹ | 1.54e+06 M⁻¹ s⁻¹ | 0.173 nM | 235000 MFI | 0.025 nM | 26500 MFI | 0.021 nM | 91700 MFI | 0.127 nM | EC50 [11]: 0.035 nM; Top (MFI) [11]: 75700 MFI; Top (MFI) [12]: 232000 MFI; EC50 [13]: 0.024 nM; Top (MFI) [13]: 23900 MFI; EC50 [14]: 0.025 nM; Top (MFI) [14]: 26500 MFI; EC50 [15]: 0.019 nM; Top (MFI) [15]: 66100 MFI; EC50 [16]: 0.019 nM; Top (MFI) [16]: 83200 MFI; Kd [17]: 20.6 nM; koff [17]: 0.0273 s⁻¹; kon [17]: 1.33e+06 M⁻¹ s⁻¹
B4 | 1.44 nM | 1.24 nM | 12.4 nM | 0.04 nM | – | – | – | – | – | – | 0.289 nM | 0.000792 s⁻¹ | 2.74e+06 M⁻¹ s⁻¹ | – | – | – | – | – | – | 0.053 nM | Top (MFI) [12]: 227000 MFI; EC50 [14]: 0.009 nM; Top (MFI) [14]: 29500 MFI; EC50 [16]: 0.01 nM; Top (MFI) [16]: 88000 MFI
